Test results: patent publication US20190241648A1 (STATEN BIOTECHNOLOGY B V, published 2019)
Ends that are not written are not given here.

What was measured:
Assay in all cases: cyclic peptide substitution array
[1] = target: T1, ApoC3 peptide P69C (human, thioether (positions not given here); not fully specified (bridges); also: thioether from modified N-terminus to C-terminal Cys (Cys not in chain))
T1 peptide: DKFSEFWDLDCEV
Description: (§1) S62 and D68 of mature huApoC3 were also highly conserved; substitution of S62 by A or V, and substitution of D68 by E or P, caused decrease of spot intensities by ˜60% or higher. […] Amino acid F64 was completely variable.
(§2) Pre: staining of one of the ApoC3 peptide microarrays was done with the secondary antibody goat anti-human IgG (Fe) DyLight680 (1:5000) and control antibody mouse monoclonal anti-HA (12CA5) DyLight800 (1:2000) to investigate background interactions of the secondary antibody with the antigen-derived peptides that could interfere with the main assays. Subsequent incubation of other ApoC3 peptide microarrays with antibody samples was followed by staining with secondary and control antibodies as well as read-out at scanning intensities of 7/7 (red/green). The additional HA peptides framing the peptide arrays were stained as internal quality control to confirm the assay quality and the peptide microarray integrity.

[2] = target: T2, ApoC3 peptide V71E (human, thioether (positions not given here); also: cyclic (thioether), ring places not given here)
T2 peptide: DKFSEFWDLDPEE
Description: as §1, §2

[3] = target: T3, ApoC3 peptide D59F (human, thioether (positions not given here); not fully specified (C-terminus, bridges))
T3 peptide: FKFSEFWDLDPEV
Description: as §1, §2

[4] = target: T4, ApoC3 peptide K60F (human, cyclic (thioether))
T4 peptide: DFFSEFWDLDPEV
Description: as §1, §2

[5] = target: T5, ApoC3 peptide K60H (human, cyclic (thioether))
T5 peptide: DHFSEFWDLDPEV
Description: as §1, §2

[6] = target: T6, ApoC3 peptide E63H (human, cyclic (thioether))
T6 peptide: DKFSHFWDLDPEV
Description: as §1, §2

[7] = target: T7, ApoC3 peptide E63I (human, cyclic (thioether))
T7 peptide: DKFSIFWDLDPEV
Description: as §1, §2

[8] = target: T8, ApoC3 peptide F61K (human, cyclic (thioether))
T8 peptide: DKKSEFWDLDPEV
Description: as §1, §2

[9] = target: T9, ApoC3 peptide D66K (human, not fully specified; cyclic (thioether))
T9 peptide: DKFSEFWKLDPEV
Description: as §1, §2

[10] = target: T10, ApoC3 peptide F61L (human, cyclic (thioether))
T10 peptide: DKLSEFWDLDPEV
Description: as §1, §2

[11] = target: T11, ApoC3 peptide V71L (human, thioether (positions not given here); also: cyclic (thioether), ring places not given here)
T11 peptide: DKFSEFWDLDPEL
Description: as §1, §2

[12] = target: T12, ApoC3 peptide F64M (human, thioether (positions not given here); not fully specified (bridges); also: cyclic (thioether), positions not given here)
T12 peptide: DKFSEMWDLDPEV
Description: as §1, §2

[13] = target: T13, ApoC3 peptide E70N (human, cyclic (thioether))
T13 peptide: DKFSEFWDLDPNV
Description: as §1, §2

[14] = target: T14, ApoC3 peptide F61P (human, cyclic (thioether))
T14 peptide: DKPSEFWDLDPEV
Description: as §1, §2

[15] = target: T15, ApoC3 peptide V71P (human, not fully specified; cyclic (thioether))
T15 peptide: DKFSEFWDLDPEP
Description: as §1, §2

[16] = target: T16, ApoC3 peptide S62Q (human, thioether (positions not given here); also: cyclic (thioether), ring places not given here)
T16 peptide: DKFQEFWDLDPEV
Description: as §1, §2

[17] = target: T17, ApoC3 peptide W65R (human, cyclic (thioether))
T17 peptide: DKFSEFRDLDPEV
Description: as §1, §2

[18] = target: T18, ApoC3 peptide L67R (human, thioether (positions not given here); not fully specified (bridges); also: thioether between a C-terminal Cys side chain and a modified N-terminus, the Cys is not in the chain)
T18 peptide: DKFSEFWDRDPEV
Description: as §1, §2

[19] = target: T19, ApoC3 peptide D66S (human, not fully specified; cyclic (thioether))
T19 peptide: DKFSEFWSLDPEV
Description: as §1, §2

[20] = target: T20, ApoC3 peptide E70S (human, cyclic (thioether))
T20 peptide: DKFSEFWDLDPSV
Description: as §1, §2

[21] = target: T21, ApoC3 peptide S62T (human, thioether (positions not given here); also: cyclic (thioether), ring places not given here)
T21 peptide: DKFTEFWDLDPEV
Description: as §1, §2

[22] = target: T22, ApoC3 peptide W65T (human, cyclic (thioether))
T22 peptide: DKFSEFTDLDPEV
Description: as §1, §2

[23] = target: T23, ApoC3 peptide D66T (human, not fully specified; cyclic (thioether))
T23 peptide: DKFSEFWTLDPEV
Description: as §1, §2

[24] = target: T24, ApoC3 peptide F64V (human, thioether (positions not given here); not fully specified (bridges); also: cyclic (thioether), positions not given here)
T24 peptide: DKFSEVWDLDPEV
Description: as §1, §2

[25] = target: T25, ApoC3 peptide P69V (human, not fully specified; cyclic (thioether))
T25 peptide: DKFSEFWDLDVEV
Description: as §1, §2

[26] = target: T26, ApoC3 peptide D59W (human, thioether (positions not given here); not fully specified (C-terminus, bridges); also: cyclised via thioether between a C-terminal Cys and a modified N-terminus, the Cys and the N-terminal …)
T26 peptide: WKFSEFWDLDPEV
Description: as §1, §2

[27] = target: T27, ApoC3 peptide D66W (human, cyclic (thioether))
T27 peptide: DKFSEFWWLDPEV
Description: as §1, §2

[28] = target: T28, ApoC3 peptide K60Y (human, cyclic (thioether))
T28 peptide: DYFSEFWDLDPEV
Description: as §1, §2

[29] = target: T29, ApoC3 peptide E63A (human, not fully specified; cyclic (thioether))
T29 peptide: DKFSAFWDLDPEV
Description: as §1, §2

[30] = target: T30, ApoC3 peptide E70A (human, cyclic (thioether))
T30 peptide: DKFSEFWDLDPAV
Description: as §1, §2

[31] = target: T31, ApoC3 peptide V71A (human, thioether (positions not given here); also: cyclic (thioether), ring places not given here)
T31 peptide: DKFSEFWDLDPEA
Description: as §1, §2

% of binding to wild-type peptide [1]: 3.72%
% of binding to wild-type peptide [2]: 127%
% of binding to wild-type peptide [3]: 31.6%
% of binding to wild-type peptide [4]: 53.2%
% of binding to wild-type peptide [5]: 116%
% of binding to wild-type peptide [6]: 49.9%
% of binding to wild-type peptide [7]: 0%
% of binding to wild-type peptide [8]: 13.5%
% of binding to wild-type peptide [9]: 0%
% of binding to wild-type peptide [10]: 63.4%
% of binding to wild-type peptide [11]: 90.6%
% of binding to wild-type peptide [12]: 132%
% of binding to wild-type peptide [13]: 49.6%
% of binding to wild-type peptide [14]: 52.7%
% of binding to wild-type peptide [15]: 173%
% of binding to wild-type peptide [16]: 1.13%
% of binding to wild-type peptide [17]: 0.02%
% of binding to wild-type peptide [18]: 15.4%
% of binding to wild-type peptide [19]: 0%
% of binding to wild-type peptide [20]: 55.2%
% of binding to wild-type peptide [21]: 215%
% of binding to wild-type peptide [22]: 0%
% of binding to wild-type peptide [23]: 0%
% of binding to wild-type peptide [24]: 117%
% of binding to wild-type peptide [25]: 55.2%
% of binding to wild-type peptide [26]: 56.8%
% of binding to wild-type peptide [27]: 0%
% of binding to wild-type peptide [28]: 56.3%
% of binding to wild-type peptide [29]: 90.1%
% of binding to wild-type peptide [30]: 50%
% of binding to wild-type peptide [31]: 66.3%
B1: Llama antibody 5E5 (antibody, V domains shown)
VH: QLQLVESGGGLVQPGGSLRLSCAASGFTFGTYSMRWVRQVPRKALEWVSSISTDGGGTAYRDSVKGRFTISRDNAKNTLYLQMNNLKPEDTAIYYCVIAGYSDWGQGTQVTVSS
VL: ATMLTQSPGSLSVVPGESASISCKTSQGLVHSDGKTYFYWFLQKPGQSPQQLIYQVSNRASGVPDRFTGSGSGTDFTLKISGVKAEDAGVYYCAQGTYYPHTFGSGTRLEIK
notes: detected with goat anti-human IgG (Fc); also called mAb 5E5
